Where no end group is shown, it is not given here.
B1: Phage-886 (peptide)
peptide: YCDGHLPEYFLKCL
modifications: cysteine pairing not given here; also: fused to phage pIII
notes: not shown: pIII filament protein of the bacteriophage to which the peptide is fused
B2: Phage-896 (Peptide-87 library clone, YCDGHAIEYMAKCL) (peptide)
peptide: YCDGHAIEYMAKCL
notes: Tested as clonal phage supernatant
B3: Phage-876 (peptide)
peptide: YCDGHLQIYLWKCL
notes: not shown: pIII coat protein of the bacteriophage to which the peptide is fused
B4: Phage-903 (Peptide-87 library clone, YCDGHSTEYMEKCL) (peptide)
peptide: YCDGHSTEYMEKCL
notes: as for B2
B5: Phage-881 (peptide)
peptide: YCDGHSREYMVKCL
modifications: cysteine pairing not given here; also: fused to phage pIII
notes: as for B1
B6: Phage-894 (Peptide-87 library clone, YCDGHLPVYLEKCL) (peptide)
peptide: YCDGHLPVYLEKCL
notes: as for B2
B7: Phage-889 (peptide)
peptide: YCEGHAQEYMSKCL
modifications: cysteine pairing not given here; also: fused to phage pIII
notes: as for B1
B8: Phage-899 (Peptide-87 library clone, YCEGHSPWYMNKCL) (peptide)
peptide: YCEGHSPWYMNKCL
notes: as for B2
B9: Phage-895 (Peptide-87 library clone, YCAGHLQEYMQKCL) (peptide)
peptide: YCAGHLQEYMQKCL
notes: as for B2
B10: Phage-890 (peptide)
peptide: YCEGHLPQYFMKCL
modifications: cysteine pairing not given here; also: fused to phage pIII
notes: as for B1
B11: Phage-879 (peptide)
peptide: YCEGHSVQYMQKCL
notes: as for B1
B12: Phage-908 (peptide)
peptide: YCDGHSREYMSKCL
notes: Peptide-87 library clone, tested as clonal phage supernatant with the peptide fused to the pIII filament of the bacteriophage
B13: Phage-877 (peptide)
peptide: YCQGHLPVYMEKCL
notes: as for B3
B14: Phage-912 (peptide)
peptide: YCDGHSADYMAKCL
notes: as for B12
B15: Phage-901 (Peptide-87 library clone, YCDGHSEQYMSKCL) (peptide)
peptide: YCDGHSEQYMSKCL
notes: as for B2
B16: Phage-885 (peptide)
peptide: YCAGHSMEYMAKCL
modifications: cysteine pairing not given here; also: fused to phage pIII
notes: as for B1
B17: Phage-915 (peptide)
peptide: YCEGHLPQYMRPCL
notes: as for B12
B18: Phage-882 (peptide)
peptide: YCDGHLVEYRGKCL
modifications: cysteine pairing not given here; also: fused to phage pIII
notes: as for B1
B19: Phage-905 (peptide)
peptide: YCDGHSWQYISKCL
notes: as for B12
B20: Phage-888 (peptide)
peptide: YCAGHTQEYMYKCL
modifications: cysteine pairing not given here; also: fused to phage pIII
notes: as for B1
B21: Phage-902 (Peptide-87 library clone, YCDGHAKEYMDKCL) (peptide)
peptide: YCDGHAKEYMDKCL
notes: as for B2
B22: Phage-880 (peptide)
peptide: YCAGHLPEYLDKCL
modifications: cysteine pairing not given here; also: fused to phage pIII
notes: as for B1
B23: Phage-893 (Peptide-87 library clone, YCEGHSAEYMQKCL) (peptide)
peptide: YCEGHSAEYMQKCL
notes: as for B2
B24: Phage-913 (peptide)
peptide: YCDGHIGLYLNKCL
notes: as for B12
B25: Phage-900 (Peptide-87 library clone, YCDGHSPAYIWKCL) (peptide)
peptide: YCDGHSPAYIWKCL
notes: as for B2
B26: Phage-883 (peptide)
peptide: YCAGHSAEYMWKCL
modifications: cysteine pairing not given here; also: fused to phage pIII
notes: as for B1
B27: Phage-910 (peptide)
peptide: YCEGHAQEYMNKCL
notes: as for B12
B28: Phage-906 (peptide)
peptide: YCEGHAPQYMNKCL
notes: as for B12
B29: Phage-911 (peptide)
peptide: YCEGHAPQYMTKCL
notes: as for B12
B30: Phage-897 (Peptide-87 library clone, YCEGHKPEYMQKCL) (peptide)
peptide: YCEGHKPEYMQKCL
notes: as for B2
B31: Phage-907 (peptide)
peptide: YCDGHAPQWMAKCL
notes: as for B12
B32: Phage-891 (peptide)
peptide: YCDGHSWEYMEKCL
modifications: cysteine pairing not given here; also: fused to phage pIII
notes: as for B1
B33: Phage-884 (peptide)
peptide: YCDGHLQIYMHKCL
modifications: cysteine pairing not given here; also: fused to phage pIII
notes: as for B1
B34: Phage-914 (peptide)
peptide: YCEGHLPMYMIKCL
notes: as for B12
B35: Phage-878 (peptide)
peptide: YCDGHAAEYMDKCL
notes: as for B3
B36: Phage-909 (peptide)
peptide: YCDGHAAEYMAKCV
notes: as for B12
B37: Phage-904 (Peptide-87 library clone, YCDGHSSLYMHKCL) (peptide)
peptide: YCDGHSSLYMHKCL
notes: as for B2
B38: Phage-892 (Peptide-87 library clone, YCAGHSPLYMLKCL) (peptide)
peptide: YCAGHSPLYMLKCL
notes: as for B2
B39: Phage-898 (Peptide-87 library clone, YCDGHAWEYMTKCL) (peptide)
peptide: YCDGHAWEYMTKCL
notes: as for B2
B40: Phage-887 (peptide)
peptide: YCDGHSLAYIAKCL
modifications: cysteine pairing not given here; also: fused to phage pIII
notes: as for B1

Columns and labels:
[1] = biological target: T1, Anti-CD28 Fab (SEQ ID NOs: 696, 697); assay: phage ELISA on captured anti-CD28 Fab; competitor: CD28 antigen pre-incubated in the well
T1 construct: In the phage ELISA the Fab was biotinylated and captured on neutravidin coated plates
T1 sequence (VH, as listed by the source, chain 1 of 2): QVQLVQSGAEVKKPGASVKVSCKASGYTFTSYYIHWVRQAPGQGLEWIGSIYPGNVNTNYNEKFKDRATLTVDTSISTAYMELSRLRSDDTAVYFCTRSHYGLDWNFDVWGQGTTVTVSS
T1 sequence (VL, as listed by the source, chain 2 of 2): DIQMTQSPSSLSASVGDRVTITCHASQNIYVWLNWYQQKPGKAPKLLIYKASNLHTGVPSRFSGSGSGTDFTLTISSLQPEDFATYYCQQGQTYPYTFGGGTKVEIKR
Protocol: (§1) After panning, phage infected bacteria were plated out and colonies picked into 96 well blocks. Clonal phage was then amplified and separated from bacterial cells via centrifugation.
(§2) Clonal phage were harvested as crude supematants and screened via standard ELISAs. […] Prior to the addition of clonal phage, wells were incubated with blocking buffer and CD28 antigen or blocking buffer alone. Without washing or aspirating, clonal phage supematants were then added to the wells and incubated for a short time. Wells were then washed followed by detection of bound phage using a horse radish conjugated anti-M13 antibody. Clonal phage of interest were then sent for sequence analysis.

[2] = biological target: T1, Anti-CD28 Fab (SEQ ID NOs: 696, 697); assay: phage ELISA; biotinylated anti-CD28 Fab on neutravidin plate, bound phage detected with anti-M13-HRP
Protocol: as §1, §2

[3] = biological target: T2, Anti-CD28 Fab (SEQ ID NOs: 696, 697); assay: phage ELISA; as above with CD28 antigen as competitor pre-incubated on the Fab coated wells
T2 construct: Biotinylated and captured on neutravidin coated plates in the phage ELISA
T2 sequence (VH, as listed by the source, chain 1 of 2): as the sequence (VH, as listed by the source, chain 1 of 2) above
T2 sequence (VL, as listed by the source, chain 2 of 2): as the sequence (VL, as listed by the source, chain 2 of 2) above
Protocol: as §1, §2

[4] = biological target: T2, Anti-CD28 Fab (SEQ ID NOs: 696, 697); assay: phage ELISA; biotinylated anti-CD28 Fab on neutravidin plates, clonal phage supernatant, anti-M13 HRP detection
Protocol: as §1, §2

[5] = biological target: T3, Anti-CD28 Fab (SEQ ID NOs: 696, 697); assay: phage binding ELISA; biotinylated Fab on neutravidin plate, clonal phage supernatant, anti-M13 HRP detection;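 further: phage from clones picked after panning, added to wells pre-incubated with blocking buffer with or without CD28 antigen, then briefly incubated and washed before detection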
T3 construct: In the phage ELISA the Fab was biotinylated and captured on neutravidin coated plates
T3 sequence (VH, as listed by the source, chain 1 of 2): as the sequence (VH, as listed by the source, chain 1 of 2) above
T3 sequence (VL, as listed by the source, chain 2 of 2): as the sequence (VL, as listed by the source, chain 2 of 2) above

[6] = biological target: T3, Anti-CD28 Fab (SEQ ID NOs: 696, 697); assay: phage binding ELISA on Fab coated plate; wells pre-incubated with CD28 antigen as competitor
Protocol: as §1, §2

[7] = biological target: Anti-CD28 Fab (SEQ ID NOs: 696, 697); assay: phage binding ELISA on captured anti-CD28 Fab; competitor: CD28 antigen preincubated in the wells
Target sequence in this assay (VH, as listed by the source, chain 1 of 2): as the sequence (VH, as listed by the source, chain 1 of 2) above
Target sequence in this assay (VL, as listed by the source, chain 2 of 2): as the sequence (VL, as listed by the source, chain 2 of 2) above

[8] = biological target: Anti-CD28 Fab (SEQ ID NOs: 696, 697); assay: phage binding ELISA; biotinylated anti-CD28 Fab on neutravidin plate, clonal phage supernatant, anti-M13 HRP detection
Target sequence in this assay (VH, as listed by the source, chain 1 of 2): as the sequence (VH, as listed by the source, chain 1 of 2) above
Target sequence in this assay (VL, as listed by the source, chain 2 of 2): as the sequence (VL, as listed by the source, chain 2 of 2) above

Row | Binder | Anti-CD28 Fab signal in the presence of CD28 [1] | Anti-CD28 Fab signal (phage binding ELISA) [2] | Phage binding ELISA, Anti-CD28 Fab signal in the presence of CD28 [3] | Phage binding ELISA, Anti-CD28 Fab signal [4] | also measured
1 | B1 | 0.11 | 1.71 |  |  | 
2 | B2 |  |  | 0.08 | 1.69 | 
3 | B3 |  |  |  |  | Anti-CD28 Fab (SEQ ID NOs: 696, 697) signal [5]: 1.72; Anti-CD28 Fab signal in the presence of CD28 [6]: 0.07
4 | B4 |  |  | 0.08 | 1.68 | 
5 | B5 | 0.06 | 1.71 |  |  | 
6 | B6 |  |  | 0.06 | 1.69 | 
7 | B7 | 0.08 | 1.7 |  |  | 
8 | B8 |  |  | 0.06 | 1.68 | 
9 | B9 |  |  | 0.07 | 1.69 | 
10 | B10 | 0.07 | 1.7 |  |  | 
11 | B11 | 0.06 | 1.71 |  |  | 
12 | B12 |  |  |  |  | Anti-CD28 Fab signal in the presence of CD28 (phage binding ELISA) [7]: 0.1; Anti-CD28 Fab signal (phage binding ELISA) [8]: 1.67
13 | B13 |  |  |  |  | Anti-CD28 Fab (SEQ ID NOs: 696, 697) signal [5]: 1.72; Anti-CD28 Fab signal in the presence of CD28 [6]: 0.06
14 | B14 |  |  |  |  | Anti-CD28 Fab signal in the presence of CD28 (phage binding ELISA) [7]: 0.07; Anti-CD28 Fab signal (phage binding ELISA) [8]: 1.67
15 | B15 |  |  | 0.07 | 1.68 | 
16 | B16 | 0.07 | 1.71 |  |  | 
17 | B17 |  |  |  |  | Anti-CD28 Fab signal in the presence of CD28 (phage binding ELISA) [7]: 0.08; Anti-CD28 Fab signal (phage binding ELISA) [8]: 1.66
18 | B18 | 0.07 | 1.71 |  |  | 
19 | B19 |  |  |  |  | Anti-CD28 Fab signal in the presence of CD28 (phage binding ELISA) [7]: 0.05; Anti-CD28 Fab signal (phage binding ELISA) [8]: 1.67
20 | B20 | 0.05 | 1.7 |  |  | 

Row | Binder | Anti-CD28 Fab signal in the presence of CD28 [1] | Anti-CD28 Fab signal (phage binding ELISA) [2] | Phage binding ELISA, Anti-CD28 Fab signal in the presence of CD28 [3] | Phage binding ELISA, Anti-CD28 Fab signal [4] | also measured
21 | B21 |  |  | 0.08 | 1.68 | 
22 | B22 | 0.07 | 1.71 |  |  | 
23 | B23 |  |  | 0.29 | 1.7 | 
24 | B24 |  |  |  |  | Anti-CD28 Fab signal in the presence of CD28 (phage binding ELISA) [7]: 0.06; Anti-CD28 Fab signal (phage binding ELISA) [8]: 1.66
25 | B25 |  |  | 0.08 | 1.68 | 
26 | B26 | 0.11 | 1.71 |  |  | 
27 | B27 |  |  |  |  | Anti-CD28 Fab signal in the presence of CD28 (phage binding ELISA) [7]: 0.06; Anti-CD28 Fab signal (phage binding ELISA) [8]: 1.67
28 | B28 |  |  |  |  | Anti-CD28 Fab signal in the presence of CD28 (phage binding ELISA) [7]: 0.08; Anti-CD28 Fab signal (phage binding ELISA) [8]: 1.67
29 | B29 |  |  |  |  | Anti-CD28 Fab signal in the presence of CD28 (phage binding ELISA) [7]: 0.08; Anti-CD28 Fab signal (phage binding ELISA) [8]: 1.67
30 | B30 |  |  | 0.06 | 1.69 | 
31 | B31 |  |  |  |  | Anti-CD28 Fab signal in the presence of CD28 (phage binding ELISA) [7]: 0.1; Anti-CD28 Fab signal (phage binding ELISA) [8]: 1.67
32 | B32 | 0.12 | 1.7 |  |  | 
33 | B33 | 0.1 | 1.71 |  |  | 
34 | B34 |  |  |  |  | Anti-CD28 Fab signal in the presence of CD28 (phage binding ELISA) [7]: 0.09; Anti-CD28 Fab signal (phage binding ELISA) [8]: 1.66
35 | B35 |  |  |  |  | Anti-CD28 Fab (SEQ ID NOs: 696, 697) signal [5]: 1.72; Anti-CD28 Fab signal in the presence of CD28 [6]: 0.07
36 | B36 |  |  |  |  | Anti-CD28 Fab signal in the presence of CD28 (phage binding ELISA) [7]: 0.07; Anti-CD28 Fab signal (phage binding ELISA) [8]: 1.67
37 | B37 |  |  | 0.07 | 1.67 | 
38 | B38 |  |  | 0.1 | 1.7 | 
39 | B39 |  |  | 0.35 | 1.69 | 
40 | B40 | 0.06 | 1.7 |  |  | 

From patent publication US20260242478A1 (published 2026)
